We go through 1 protein from article PMC5177890, “Controlled Orientation of Active Sites in a Nanostructured Multienzyme Complex” (Scientific Reports, 2016).

As a reminder, the stoichiometry N is a count of units in the complex or per binding partner.

This data set deals with the molecule itself. Nature of the data set: SEC; size exclusion chromatography of the enzyme in solution (Supplementary Fig. 1); conditions not told in the main text. (In gel filtration, larger molecules generally elute earlier.)

B1: Formate dehydrogenase from Thiobacillus sp. KNK65MA, wild type (enzyme)
chain: MAKILCVLYDDPVDGYPKTYARDDLPKIDHYPGGQTLPTPKAIDFTPGQLLGSVSGELGLRKYLEANGHTFVVTSDKDGPDSVFEKELVDADVVISQPFWPAYLTPERIAKAKNLKLALTAGIGSDHVDLQSAIDRGITVAEVTYCNSISVAEHVVMMILGLVRNYIPSHDWARKGGWNIADCVEHSYDLEGMTVGSVAAGRIGLAVLRRLAPFDVKLHYTDRHRLPEAVEKELGLVWHDTREDMYPHCDVVTLNVPLHPETEHMINDETLKLFKRGAYIVNTARGKLADRDAIVRAIESGQLAGYAGDVWFPQPAPKDHPWRTMKWEGMTPHISGTSLSAQARYAAGTREILECFFEGRPIRDEYLIVQGGALAGTGAHSYSKGNATGGSEEAAKFKKAG
notes: NAD-dependent formate dehydrogenase of Thiobacillus sp; KNK65MA; fdh gene PCR amplified from pET-23b(+)-TsFDH and subcloned into pQE80; 45 kDa for a single subunit; also called FDH; FDH-WT; source: E. coli TOP10, purified (Ni-NTA agarose)
On to B1, for which the “stoichiometry N” value came out at 2.
